From patent publication US20220226495A1
Where two headings read alike, the source gives them in different places.

B1: V1/V2 directed Ab “b” (antibody, V domains shown)
VH: QVQLVESGGGVVQPGTSLRLSCAASQFRFDGYGMHWVRQAPGKGLEWVASISHDGIKKYHAEKVWGRFTISRDNSKNTLYLQMNSLRPEDTALYYCAKDLREDECEEWWSDYYDFGKQLPCAKSRGGLVGIADNWGQGTMVTVSS
VL: QSVLTQPPSVSAAPGQKVTISCSGNTSNIGNNFVSWYQQRPGRAPQLLIYETDKRPSGIPDRFSASKSGTSGTLAITGLQTGDEADYYCATWAASLSSARVFGTGTKVIVL
B2: V1/V2 directed Ab “a” (antibody, V domains shown)
VH: QVHLTQSGPEVRKPGTSVKVSCKAPGNTLKTYDLHWVRSVPGQGLQWMGWISHEGDKKVIVERFKAKVTIDWDRSTNTAYLQLSGLTSGDTAVYYCAKGSKHRLRDYALYDDDGALNWAVDVDYLSNLEFWGQGTAVTVSS
VL: DFVLTQSPHSLSVTPGESASISCKSSHSLIHGDRNNYLAWYVQKPGRSPQLLIYLASSRASGVPDRFSGSGSDKDFTLKISRVETEDVGTYYCMQGRESPWTFGQGTKVDIK
B3: Binding Protein 2 (protein)
heavy 1: RAHLVQSGTAMKKPGASVRVSCQTSGYTFTAHILFWFRQAPGRGLEWVGWIKPQYGAVNFGGGFRDRVTLTRDVYREIAYMDIRGLKPDDTAVYYCARDRSYGDSSWALDAWGQGTTVVVSAASTKGPSVFPLAPSSKSTSGGTAALGCLVKDYFPEPVTVSWNSGALTSGVHTFPAVLQSSGLYSLSSVVTVPSSSLGTQTYICNVNHKPSNTKVDKKVEPKSCDKTHTCPPCPAPELLGGPSVFLFPPKPKDTLMISRTPEVTCVVVDVSHEDPEVKFNWYVDGVEVHNAKTKPREEQYNSTYRVVSVLTVLHQDWLNGKEYKCKVSNKALPAPIEKTISKAKGQPREPQVCTLPPSRDELTKNQVSLSCAVKGFYPSDIAVEWESNGQPENNYKTTPPVLDSDGSFFLVSKLTVDKSRWQQGNVFSCSVLHEALHSHYTQKSLSLSPG
light 1: YIHVTQSPSSLSVSIGDRVTINCQTSQGVGSDLHWYQHKPGRAPKLLIHHTSSVEDGVPSRFSGSGFHTSFNLTISDLQADDIATYYCQVLQFFGRGSRLHIKRTVAAPSVFIFPPSDEQLKSGTASVVCLLNNFYPREAKVQWKVDNALQSGNSQESVTEQDSKDSTYSLSSTLTLSKADYEKHKVYACEVTHQGLSSPVTKSFNRGEC
heavy 2: EVRLVESGGGLVKPGGSLRLSCSASGFDFDNAWMTWVRQPPGKGLEWVGRITGPGEGWSVDYAESVKGRFTISRDNTKNTLYLEMNNVRTEDTGYYFCARTGKYYDFWSGYPPGEEYFQDWGQGTLVIVSSDKTHTQVHLTQSGPEVRKPGTSVKVSCKAPGNTLKTYDLHWVRSVPGQGLQWMGWISHEGDKKVIVERFKAKVTIDWDRSTNTAYLQLSGLTSGDTAVYYCAKGSKHRLRDYALYDDDGALNWAVDVDYLSNLEFWGQGTAVTVSSDKTHTASTKGPSVFPLAPSSKSTSGGTAALGCLVKDYFPEPVTVSWNSGALTSGVHTFPAVLQSSGLYSLSSVVTVPSSSLGTQTYICNVNHKPSNTKVDKKVEPKSCDKTHTCPPCPAPELLGGPSVFLFPPKPKDTLMISRTPEVTCVVVDVSHEDPEVKFNWYVDGVEVHNAKTKPREEQYNSTYRVVSVLTVLHQDWLNGKEYKCKVSNKALPAPIEKTISKAKGQPREPQVYTLPPCRDELTKNQVSLWCLVKGFYPSDIAVEWESNGQPENNYKTTPPVLDSDGSFFLYSKLTVDKSRWQQGNVFSCSVLHEALHSHYTQKSLSLSPG
light 2: DFVLTQSPHSLSVTPGESASISCKSSHSLIHGDRNNYLAWYVQKPGRSPQLLIYLASSRASGVPDRFSGSGSDKDFTLKISRVETEDVGTYYCMQGRESPWTFGQGTKVDIKDKTHTASELTQDPAVSVALKQTVTITCRGDSLRSHYASWYQKKPGQAPVLLFYGKNNRPSGIPDRFSGSASGNRASLTITGAQAEDEADYYCSSRDKSGSRLSVFGGGTKLTVLDKTHTRTVAAPSVFIFPPSDEQLKSGTASVVCLLNNFYPREAKVQWKVDNALQSGNSQESVTEQDSKDSTYSLSSTLTLSKADYEKHKVYACEVTHQGLSSPVTKSFNRGEC
B4: Binding Protein 3 (protein)
heavy 1: B3 heavy 1
light 1: B3 light 1
heavy 2: QVHLTQSGPEVRKPGTSVKVSCKAPGNTLKTYDLHWVRSVPGQGLQWMGWISHEGDKKVIVERFKAKVTIDWDRSTNTAYLQLSGLTSGDTAVYYCAKGSKHRLRDYALYDDDGALNWAVDVDYLSNLEFWGQGTAVTVSSDKTHTEVRLVESGGGLVKPGGSLRLSCSASGFDFDNAWMTWVRQPPGKGLEWVGRITGPGEGWSVDYAESVKGRFTISRDNTKNTLYLEMNNVRTEDTGYYFCARTGKYYDFWSGYPPGEEYFQDWGQGTLVIVSSDKTHTASTKGPSVFPLAPSSKSTSGGTAALGCLVKDYFPEPVTVSWNSGALTSGVHTFPAVLQSSGLYSLSSVVTVPSSSLGTQTYICNVNHKPSNTKVDKKVEPKSCDKTHTCPPCPAPELLGGPSVFLFPPKPKDTLMISRTPEVTCVVVDVSHEDPEVKFNWYVDGVEVHNAKTKPREEQYNSTYRVVSVLTVLHQDWLNGKEYKCKVSNKALPAPIEKTISKAKGQPREPQVYTLPPCRDELTKNQVSLWCLVKGFYPSDIAVEWESNGQPENNYKTTPPVLDSDGSFFLYSKLTVDKSRWQQGNVFSCSVLHEALHSHYTQKSLSLSPG
light 2: ASELTQDPAVSVALKQTVTITCRGDSLRSHYASWYQKKPGQAPVLLFYGKNNRPSGIPDRFSGSASGNRASLTITGAQAEDEADYYCSSRDKSGSRLSVFGGGTKLTVLDKTHTDFVLTQSPHSLSVTPGESASISCKSSHSLIHGDRNNYLAWYVQKPGRSPQLLIYLASSRASGVPDRFSGSGSDKDFTLKISRVETEDVGTYYCMQGRESPWTFGQGTKVDIKDKTHTRTVAAPSVFIFPPSDEQLKSGTASVVCLLNNFYPREAKVQWKVDNALQSGNSQESVTEQDSKDSTYSLSSTLTLSKADYEKHKVYACEVTHQGLSSPVTKSFNRGEC

Experiments:
[1] = molecular target: HIV-1 Env of 20 pseudotyped viruses representing 10 different HIV-1 clades; assay: cell-based or functional assay
[2] = molecular target: HIV-1 Env of 20 pseudotyped viruses representing 10 different HIV-1 clades; assay: cell-based or functional assay; remark: listed apart in the source
[3] = molecular target: T1, MPER binding peptide (Acetyl-[…]-Ttds-Lys-(Biotin)-NH2) (HIV-1)
[4] = molecular target: T1, MPER binding peptide …; remark: listed apart in the source

Binder	% VS Neutralized IC80 <1 µg/mL [1]	% VS Neutralized IC80 <50 µg/mL [1]	Geometric Mean [1]	Median IC80 [1]	Total VS Neutralized IC80 <1 µg/mL (viruses of 20) [1]	Total VS Neutralized IC80 <50 µg/mL (viruses of 20) [1]	% VS Neutralized IC80 <1 µg/mL [2]	% VS Neutralized IC80 <50 µg/mL [2]	Geometric Mean [2]	Median IC80 [2]	Total VS Neutralized IC80 <1 µg/mL (viruses of 20) [2]	Total VS Neutralized IC80 <50 µg/mL (viruses of 20) [2]	Ka [3]	Kd [3]	koff [3]	kon [3]	fold higher affinity than the MPER antibody [4]
B1	45%	45%	0.039 µg/mL	0.051 µg/mL	9	9	–	–	–	–	–	–	–	–	–	–	–
B2	–	–	–	–	–	–	45%	55%	0.094 µg/mL	0.06 µg/mL	9	11	–	–	–	–	–
B3	–	–	–	–	–	–	65%	90%	0.222 µg/mL	0.375 µg/mL	13	18	1.65e+08 M⁻¹	6.05 nM	0.000697 s⁻¹	115000 M⁻¹ s⁻¹	3.1 fold
B4	–	–	–	–	–	–	60%	90%	0.287 µg/mL	0.469 µg/mL	12	18	6e+07 M⁻¹	16.7 nM	0.000779 s⁻¹	46700 M⁻¹ s⁻¹	–
